T1: HLA-DP DPB1*02:01 (human)
T1 chain 1: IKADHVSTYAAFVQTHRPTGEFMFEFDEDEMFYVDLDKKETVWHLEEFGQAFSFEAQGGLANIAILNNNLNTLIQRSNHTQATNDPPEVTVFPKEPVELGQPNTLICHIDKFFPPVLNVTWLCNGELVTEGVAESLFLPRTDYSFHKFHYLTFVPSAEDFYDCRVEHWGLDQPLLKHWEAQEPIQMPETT
T1 chain 2: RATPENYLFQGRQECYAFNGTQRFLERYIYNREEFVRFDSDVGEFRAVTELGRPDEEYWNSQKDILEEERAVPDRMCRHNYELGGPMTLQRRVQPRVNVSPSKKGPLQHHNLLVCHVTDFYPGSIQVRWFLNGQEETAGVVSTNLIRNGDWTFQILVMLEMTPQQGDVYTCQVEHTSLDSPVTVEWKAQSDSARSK

T2: HLA-DP DPB1*04:01 (human)
T2 chain 1: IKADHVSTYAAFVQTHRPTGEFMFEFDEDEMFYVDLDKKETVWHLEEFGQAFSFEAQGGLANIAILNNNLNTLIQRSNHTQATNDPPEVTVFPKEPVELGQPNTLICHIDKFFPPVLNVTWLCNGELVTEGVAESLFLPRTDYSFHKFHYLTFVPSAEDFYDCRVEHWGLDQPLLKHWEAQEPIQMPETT
T2 chain 2: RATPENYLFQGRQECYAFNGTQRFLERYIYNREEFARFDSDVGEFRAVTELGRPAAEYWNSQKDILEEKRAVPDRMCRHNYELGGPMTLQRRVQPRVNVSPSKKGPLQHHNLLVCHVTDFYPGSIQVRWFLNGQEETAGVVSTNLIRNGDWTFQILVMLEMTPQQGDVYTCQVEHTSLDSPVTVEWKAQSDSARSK

B1: ApoB100 peptide 3563.0021 (peptide)
peptide: EGHLRFLKNIILPVY
B2: ApoB100 peptide 3563.0023 (peptide)
peptide: ILFSYFQDLVITLPF
B3: ApoB100 peptide 3563.0015 (peptide)
peptide: LIINWLQEALSSASL
notes: agrees with the claims
B4: ApoB100 peptide 3563.0020 (peptide)
peptide: RGLKLATALSLSNKF
B5: ApoB100 peptide 3563.001 (peptide)
peptide: PALLALLALPALLLL
notes: label printed as 3563.001
B6: ApoB100 peptide 3563.0012 (peptide)
peptide: LSQLQTYMIQFDQYI
B7: ApoB100 peptide 3563.0014 (peptide)
peptide: HVKHFVINLIGDFEV
B8: ApoB100 peptide 3563.0004 (peptide)
peptide: DKRLAAYLMLMRSPS
B9: ApoB100 peptide 3563.0027 (peptide)
peptide: QIHQYIMALREEYFD
B10: ApoB100 peptide 3563.0009 (peptide)
peptide: IKHIYAISSAALSAS
notes: also called p9; P9
B11: ApoB100 peptide 3563.0016 (peptide)
peptide: GKLYSILKIQSPLFT
B12: ApoB100 peptide 3563.0008 (peptide)
peptide: VGSKLIVAMSSWLQK
B13: ApoB100 peptide 3563.0007 (peptide)
peptide: VEFVTNMGIIIPDFA
notes: agrees with the claims
B14: ApoB100 peptide 3563.0006 (peptide)
peptide: FLHYIFMENAFELPT
B15: ApoB100 peptide 3563.0029 (peptide)
peptide: IDLSIQNYHTFLIYI
B16: ApoB100 peptide 3563.0008 (peptide)
peptide: VGSKLIVAMSSWLQK
notes: agrees with the claims
B17: ApoB100 peptide 3563.0005 (peptide)
peptide: TLTAFGFASADLIEI
B18: ApoB100 peptide 3563.0012 (peptide)
peptide: LSQLQTYMIQFDQYI
B19: ApoB100 peptide 3563.0018 (peptide)
peptide: SLFFSAQPFEITAST
notes: also called p18
B20: ApoB100 peptide 3563.0003 (peptide)
peptide: QELLDIANYLMEQIQ
B21: ApoB100 peptide 3563.0003 (peptide)
peptide: QELLDIANYLMEQIQ
B22: ApoB100 peptide 3563.0005 (peptide)
peptide: TLTAFGFASADLIEI
B23: ApoB100 peptide 3563.0024 (peptide)
peptide: QEVFKAIQSLKTTEV
B24: ApoB100 peptide 3563.0030 (peptide)
peptide: FLIYITELLKKLQST
B25: ApoB100 peptide 3563.0015 (peptide)
peptide: LIINWLQEALSSASL
B26: ApoB100 peptide 3563.0028 (peptide)
peptide: KIVSLIKNLLVALKD
B27: ApoB100 peptide 3563.0017 (peptide)
peptide: LEVLNFDFQANAQLS
notes: agrees with the claims
B28: ApoB100 peptide 3563.0022 (peptide)
peptide: YKKLRTSSFALNLPT
B29: ApoB100 peptide 3563.0019 (peptide)
peptide: GKIDFLNNYALFLSP
B30: ApoB100 peptide 3563.0028 (peptide)
peptide: KIVSLIKNLLVALKD

Assays:
HLA-DP DPB1*02:01 = target: T1, HLA-DP DPB1*02:01; experiment: competition assay
HLA-DRB3*01:01 = target: T3, HLA-DRB3*01:01 (human); experiment: HLA class II competition binding assay
T3 construct: MHC class II molecule; how it was prepared for the assay is not described

HLA-DP DPB1*04:01 = target: T2, HLA-DP DPB1*04:01; experiment: competition assay
HLA-DRB1*13:02 = target: T4, HLA-DRB1*13:02 (human); experiment: HLA class II competition binding assay
T4 construct: MHC class II molecule; how it was prepared for the assay is not described

HLA-DRB1*07:01 = target: T5, HLA-DRB1*07:01 (human); experiment: HLA class II competition binding assay
T5 construct: MHC class II molecule; how it was prepared for the assay is not described

HLA-DRB1*15:01 = target: T6, HLA-DRB1*15:01 (human); experiment: HLA class II competition binding assay
T6 construct: MHC class II molecule; how it was prepared for the assay is not described

HLA-DRB3*02:02 = target: T7, HLA-DRB3*02:02 (human); experiment: HLA class II competition binding assay
T7 construct: MHC class II molecule; how it was prepared for the assay is not described

HLA-DRB5*01:01 = target: T8, HLA-DRB5*01:01 (human); experiment: HLA class II competition binding assay
T8 construct: MHC class II molecule; how it was prepared for the assay is not described

HLA-DRB1*01:01 = target: T9, HLA-DRB1*01:01 (human); experiment: HLA class II competition binding assay
T9 construct: MHC class II molecule; how it was prepared for the assay is not described

HLA-DRB1*03:01 = target: T10, HLA-DRB1*03:01 (human); experiment: HLA class II competition binding assay
T10 construct: MHC class II molecule; how it was prepared for the assay is not described

HLA-DRB1*04:01 = target: T11, HLA-DRB1*04:01 (human); experiment: HLA class II competition binding assay
T11 construct: MHC class II molecule; how it was prepared for the assay is not described

HLA-DRB1*04:05 = target: T12, HLA-DRB1*04:05 (human); experiment: HLA class II competition binding assay
T12 construct: MHC class II molecule; how it was prepared for the assay is not described

HLA-DRB1*09:01 = target: T13, HLA-DRB1*09:01 (human); experiment: HLA class II competition binding assay
T13 construct: MHC class II molecule; how it was prepared for the assay is not described

HLA-DRB1*12:01 = target: T14, HLA-DRB1*12:01 (human); experiment: HLA class II competition binding assay
T14 construct: MHC class II molecule; how it was prepared for the assay is not described

HLA-DRB4*01:01 = target: T15, HLA-DRB4*01:01 (human); experiment: HLA class II competition binding assay
T15 construct: MHC class II molecule; how it was prepared for the assay is not described

HLA-DP DPB1*05:01 = target: T16, HLA-DP DPB1*05:01 (human); experiment: competition assay
T16 construct: its preparation is not described

HLA-DP DPB1*14:01 = target: T17, HLA-DP DPB1*14:01 (human); experiment: competition assay
T17 construct: its preparation is not described

HLA-DQ DQB1*06:02 = target: T18, HLA-DQ DQB1*06:02 (human); experiment: competition assay
T18 construct: its preparation is not described

Row | Binder | IC50 (HLA-DP DPB1*02:01) [nM] | IC50 (HLA-DP DPB1*04:01) [nM] | also measured
1 | B1 | 61 | – | –
2 | B2 | – | – | IC50 (HLA-DRB3*01:01): 71 nM
3 | B3 | 16300 | 6190 | –
4 | B4 | – | – | IC50 (HLA-DRB1*13:02): 1.1 nM
5 | B5 | – | 14000 | –
6 | B6 | 576 | 951 | –
7 | B7 | 58 | 7 | –
8 | B8 | 1680 | 372 | –
9 | B9 | 80 | 817 | –
10 | B10 | – | – | IC50 (HLA-DRB1*07:01): 77 nM; IC50 (HLA-DRB1*15:01): 1.1 nM; IC50 (HLA-DRB3*02:02): 3.4 nM
11 | B11 | 9070 | 2100 | –
12 | B12 | – | – | IC50 (HLA-DRB5*01:01): 23 nM
13 | B13 | 12 | – | –
14 | B14 | 40 | 32 | –
15 | B15 | 23200 | 25000 | –
16 | B16 | 128 | 89 | –
17 | B17 | – | 490 | –
18 | B18 | – | – | IC50 (HLA-DRB1*01:01): 157 nM; IC50 (HLA-DRB1*03:01): 20500 nM; IC50 (HLA-DRB1*04:01): 19 nM; IC50 (HLA-DRB1*04:05): 69 nM; IC50 (HLA-DRB1*07:01): 14 nM; IC50 (HLA-DRB1*09:01): 425 nM; IC50 (HLA-DRB1*12:01): 3360 nM; IC50 (HLA-DRB1*13:02): 35 nM; IC50 (HLA-DRB1*15:01): 1.1 nM; IC50 (HLA-DRB3*01:01): 1110 nM; IC50 (HLA-DRB3*02:02): 4660 nM; IC50 (HLA-DRB4*01:01): 29 nM; IC50 (HLA-DRB5*01:01): 826 nM
19 | B19 | 11 | – | IC50 (HLA-DP DPB1*05:01): 1480 nM; IC50 (HLA-DP DPB1*14:01): 126 nM; IC50 (HLA-DQ DQB1*06:02): 895 nM
20 | B20 | – | – | IC50 (HLA-DRB3*01:01): 88 nM
21 | B21 | 1780 | 2580 | –
22 | B22 | – | – | IC50 (HLA-DRB1*01:01): 60 nM; IC50 (HLA-DRB1*03:01): 16400 nM; IC50 (HLA-DRB1*07:01): 33 nM; IC50 (HLA-DRB1*09:01): 28 nM; IC50 (HLA-DRB1*12:01): 27200 nM; IC50 (HLA-DRB1*13:02): 6.1 nM; IC50 (HLA-DRB1*15:01): 25 nM; IC50 (HLA-DRB3*01:01): 99 nM; IC50 (HLA-DRB3*02:02): 18100 nM; IC50 (HLA-DRB5*01:01): 276 nM
23 | B23 | 200 | 16 | –
24 | B24 | 96 | 215 | –
25 | B25 | – | – | IC50 (HLA-DRB1*13:02): 12 nM; IC50 (HLA-DRB4*01:01): 12 nM
26 | B26 | – | – | IC50 (HLA-DRB5*01:01): 14 nM
27 | B27 | 86 | 191 | –
28 | B28 | 3.3 | 2.1 | –
29 | B29 | 456 | – | –
30 | B30 | 657 | 78 | –
